Results published in a protein production outcome set (Wang et al. 2014).

Assay: label from the status in PepcDB records

Sequence	protein production
MPMGSLQPLATLYLLGMLVASCLGRLSWYDPDFQARLTRSNSKCQGQLEVYLKDGWHMVCSQSWGRSSKQWEDPSQASKVCQRLNCGVPLSLGPFLVTYTPQSSIICYGQLGSFSNCSHSRNDMCHSLGLTCLEPQKTTPPTTRPPPTTTPEPTAPPRLQLVAQSGGQHCAGVVEFYSGSLGGTISYEAQDKTQDLENFLCNNLQCGSFLKHLPETEAGRAQDPGEPREHQPLPIQWKIQNSSCTSLEHCFRKIKPQKSGRVLALLCSGFQPKVQSRLVGGSSICEGTVEVRQGAQWAALCDSSSARSSLRWEEVCREQQCGSVNSYRVLDAGDPTSRGLFCPHQKLSQCHELWERNSYCKKVFVTCQDPNPAGLAAGTVASIILALVLLVVLLVVCGPLAYKKLVKKFRQKKQRQWIGPTGMNQNMSFHRNHTATVRSHAENPTASHVDNEYSQPPRNSRLSAYPALEGVLHRSSMQPDNSSDSDYDLHGAQRL	failed
MSSTALEMASRFVNRSPFNRWLGMSVLEAGEQGIVLGIKWREELISSPEIRSTHGGILATLVDAAGDYAVALKTGHPVPTMDMHVDYHRVATPGDLRAEGQVIHFGKRFATAHARVLDMDGNLVASGRALYLIRAPQPGAAQGAA	failed
MKSNDTSFRRYLCSASPRLRPALLAMLTVVLLAGCATADKHGLSPQQRSASDLADSEEIDPAARERISHALGRDADEGALRDALKQQPNNIDAAIPLARALLARNCPNDALEVLDGVLLATPGDLRALNAKAVVLDHEGRHQEAQELYRQALAAEPANPMLRNNFGLSLALQGKMDAGDASAAPQAGSRKALARSR	failed
MSLFGRLLSLLLAFVPLSICAAVNHLPVVGEDYVEIPDGRPFAPLAGKIEVVEIFGYTCPHCAHFDSKLQAWGARQAKDVRFTLVPAVFGGVWDPFARAYLAADVLGVAKRSHAAMFEAIHEKGSVPIQNVGPDELAVFYAGYGVQPDRFVATFNGPEVEKRFQAARAYALKVRPVGTPAIVVDGRYMVTGHDFDDTLRITDYLVSRERAASHGR	failed
MTKVIVVNGPNLGRLGVRQPDVYGRQDLDTLRKLCAEWGKDLGLEVEVRQTDDEAEMVRWMHQAADEKTPVVMNPAAFTHYSYALADAAHMVIDENLPLMEVHISNPSARDEFRKRSVISPVATGTITGMGFYGYKLALDAVAHLLSE	not failed
MLILLPDFIGHPSCFRGLLARLGATDCRLVDYHRLDAYASIEALASQVLDGLAEEPDWLIGYSFGGLVGYEMARQLPASRLLMIDSHLPWPALRRMPPSEQYQRWLSAEMREWIALMSELGELREEVLLRNVELFGRWQPRHRLARASWVRCRDDAGRDPAAERWCDLIERLDTFPCERPHHLALQDPAVIDFIVHTVSK	failed
MRAPLSTYRRPQRTDFVTPTGGPFFAKQDKALNTIDLKMAHDLKLRGYRVKVAVVDEGVRSDHPLLNVEKKYGGDYMADGTRTYPDPKRQGRHGTSVALVLAGQDTDTYRGGVAPNADLYSANIGTRAGHVSDEAAFHAWNDLLGHGIKIFNNSFATEGPEGEQRVKEDRNEYHSAANKQNTYIGRLDRLVRDGALLIFAAGNGRPSGRAYSEVGSVGRTPRVEPHLQRGLIVVTAVDENGRLETWANRCGQAQQWCLAAPSTAYLPGLDKDNPDSIHVEQGTSLSAPLVTGAAVLVQDRFRWMDNDNLRTTLLTTAQDKGPYGVDPQYGWGVLDVGRAVQGPAQFAFGDFVARVTDTSTFGLEHHHHHH	failed
MVTVMRTLMPKIGRIAAKMTLCALCVAPMFSVQATELNWPEQPFRYYADNDSLKDLLNNFGANYRVSVSVSDKVNDRVSGRFTPEDPAEFLDYLAQVYNLMWYFDGAVLHVYKATETRSRLLQLELLTARELRSTLISTGVWDARYGWRAAENKGLVYLAGPPRYVELVVQTAEALESRLLQKSNSTDELFVELIPLKYASATDRSISYRDQSITVPGIASVLSRVVGGVQTQITDSASVQTSSVNGLPAEAAKPRGKTASVHGGATVEAEPGLNAIIVRDTQARLPLYRKLVAQLDQPQSRIEVALSIVDISANDLRQLGVDWRAGVSVGNNRIVDIKTTGDVDNGDVTLGSGQSFKSLLDSTNLNYLLAQIRLLESKGSAQVVSRPTLLTQENVEAVLNNSSTFYVKLVGKETAALEEVTYGTLLRIVPRIVGDRFATRPEINLSLHLEDGAKIPDGGVDDLPSVRKTEISTLATVKQGQSLLIGGVYRDEVSHQLRKVPLLGDIPYLGALFRSNTNTTRRTVRMFIIEPRIVVDGIGDSVLIGNEHDLRPSIGQLNNISNNSAEFKSVVEVFSCTSKTQAERYQQDLLSQQKSSLLTQCQLPSGQVGWRVKVAECDLSQAECVRPSEEP	failed
MTSSPELARAVAATLARHVTDVVICPGSRNSPLSLELIARDDIRVHTRIDERSAAFLALGLARSSKRHVAVVTTSGTAVANCAPAMIEAAYSHTPLIMVSADRPERLHGTGANQTIEQRGIFNVVDTDHVVDITDLNSISFARNVIHINVALDVPLVDVLPEVGDPVERVREVIEV	failed
MWAGMYPSQPDQVKSKPTYILNYFINPMTGSDILGLLMVYVYVAVLLLVSERFLGDRPNLSRKFVHIMVGNILFILPLFESRLVITFLAAAPFILITFLLSPYSPLRVKHRASSYGHGLGLVYYSISWTILAYLFFEAPWITGIGIAAMSYGDGFASLTGERFGRTTFSVLGDKKSLEGSLGMFIILLVMLPVVLTYYSQGFTPYLILGVALVSTVLEALTPRGLDNLTACFGAVAAYILLGGMGI	failed
MSLSTWISYTIACILLISPPGPTVTYLITTSMTHGKKTAYEIVWGSFWGGLVCLILSFIGIGAILKTSGTLYAILRLLGIAYLIYLGIKSFLDANKVKDKTEKMVPPEKGEAFKNGFLLIFLNPKNIIFFASFLPQFINHNSPFLLQTTILSLTYLIVGLINDYLYSFFASNIGNVLGKHSEKWIAYIGGVAMILSAIIVVFQNF	failed
RPQTTDNWQNTEIEGIDIMLAVDVSTSMLAEDLKPNRLEAAKQVASEFINGRPNDNIGLTIFAGESFTQCPLTVDHGVLLNLFNSIKGDIAQRGLIEDGTAIGMGIANAVTRLKDSKAKSKVIILLTDGSNNRGDISPLTAAEIAKQFGIRIYTIGVGTNGTAPYPMQTYAGTQYVNVPVEIDEKTLTEIAGTTNGNYFRATSNSKLKEVYQEIDKLEKTKL	failed
MKKDSTIAFTGGRILTMDSEQKYAEAVVIRGDRIAAVGGTYILKSFPDAEIRDLKNRYLLPAFIDSHNHLSSFGCLEHHHHHH	not failed
MKMHRDSISLNSYEEMAEYYFSYVDQKPFNAYYERPATLSLLPDVAGKRVLDAGCAAGWYTQWLLDKGAAVTAVDFSAGMIEMTRKRVGERAEIIRADLNEPLDFMAKESCDIVLSSLALHYLKDWTLVMSEFHRILAKGGLLIFSVHHPFMDFTVFQRDNYFLTELLDDEWETQKGKVKVQFYRRPLSQILSAVLEAGFLLEKVLEPMPTEEFKSAQPDAYRRLTYKPQFLFLRARKP	failed
MNYFATVARGLETLAAQELEQLGAHSVEPGFCGVAFEGDRTLLYRVNLWARLPFRILVDIHEFPCLDAKDLYRGIQTIDWQNYLTPDMTLAVNVTGKNAHLNHSHFTSLQVKNAIVDQQQEKLGERSNVELHEPDVRVNVHIERDFCTVKLDSSGNSLHRRGYRPAVGSAPLKESLAAALIQLSGWKQDQMFYDPLCGSGTLPLEASLKALNIAPGLFRESFGFENWLDFDLVLLEKLLQEAKDSQLDTLPAPIWGSDHDENVIEQAINNAQNCGVDNHVWFSQMELADVVAPADSGILLCNPPYGERLGRDSDLGAFYKLLGDVLKQRFKGWTAFVLSGNKELSQSIGLKSSKRIAVYNGALPCQLMKYELY	failed
WPGRDRLRHLEPLRSITQLAALLANELEASVSPDTPLLLAGHSMGAQVAFETCRLLEQRGLAPQGLIISGCHAPHLHSERQLSHRDDADFIAELIDIGGCSPELRENQELMSLFLPLLRADFYATESYHYDSPDVCPPLRTPALLLCGSHDREASWQQVDAWRQWLSHVTGPVVIDGDHFYPIQQARSFFTQIVRHFP	failed
